T1: human FcγRIIB (human, UniProt P31994 46-217)
T1 construct: Bought protein, construct not described
T1 sequence (looked up): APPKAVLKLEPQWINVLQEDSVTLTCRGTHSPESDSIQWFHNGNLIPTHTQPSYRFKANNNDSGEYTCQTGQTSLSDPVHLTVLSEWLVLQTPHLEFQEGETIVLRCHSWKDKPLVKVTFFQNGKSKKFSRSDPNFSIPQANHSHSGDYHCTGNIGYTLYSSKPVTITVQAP

T2: human FcγRIIA (human, UniProt P12318 36-218)
T2 construct: Bought protein, construct not described
T2 sequence (looked up): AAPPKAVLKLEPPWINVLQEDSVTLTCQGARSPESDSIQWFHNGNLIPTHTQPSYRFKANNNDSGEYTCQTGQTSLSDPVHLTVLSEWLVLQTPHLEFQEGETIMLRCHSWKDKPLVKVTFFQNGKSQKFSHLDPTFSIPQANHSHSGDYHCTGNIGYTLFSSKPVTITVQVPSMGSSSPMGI

T3: soluble recombinant tetrameric human DC-SIGN (human, UniProt Q9NNX6 66-404, limits assumed)
T3 construct: also called Dendritic Cell-Specific Intercellular adhesion molecule-3-Grabbing Non-integrin
T3 sequence (looked up): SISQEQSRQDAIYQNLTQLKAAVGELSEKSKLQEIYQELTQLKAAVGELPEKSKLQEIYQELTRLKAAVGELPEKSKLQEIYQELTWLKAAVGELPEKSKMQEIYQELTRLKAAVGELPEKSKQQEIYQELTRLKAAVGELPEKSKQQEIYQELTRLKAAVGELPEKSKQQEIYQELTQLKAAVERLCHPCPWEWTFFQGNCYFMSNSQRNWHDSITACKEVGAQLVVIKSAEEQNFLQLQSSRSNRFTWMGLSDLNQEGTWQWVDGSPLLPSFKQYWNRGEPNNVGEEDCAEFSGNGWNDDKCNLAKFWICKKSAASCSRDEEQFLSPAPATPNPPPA

B1: human Siglec-1 (receptor, UniProt Q9BZZ2 20-1641, looked up)
chain: SWGVSSPQDVQGVKGSCLLIPCIFSFPADVEVPDGITAIWYYDYSGQRQVVSHSADPKLVEARFRGRTEFMGNPEHRVCNLLLKDLQPEDSGSYNFRFEISEVNRWSDVKGTLVTVTEEPRVPTIASPVELLEGTEVDFNCSTPYVCLQEQVRLQWQGQDPARSVTFNSQKFEPTGVGHLETLHMAMSWQDHGRILRCQLSVANHRAQSEIHLQVKYAPKGVKILLSPSGRNILPGELVTLTCQVNSSYPAVSSIKWLKDGVRLQTKTGVLHLPQAAWSDAGVYTCQAENGVGSLVSPPISLHIFMAEVQVSPAGPILENQTVTLVCNTPNEAPSDLRYSWYKNHVLLEDAHSHTLRLHLATRADTGFYFCEVQNVHGSERSGPVSVVVNHPPLTPVLTAFLETQAGLVGILHCSVVSEPLATLVLSHGGHILASTSGDSDHSPRFSGTSGPNSLRLEIRDLEETDSGEYKCSATNSLGNATSTLDFHANAARLLISPAAEVVEGQAVTLSCRSGLSPTPDARFSWYLNGALLHEGPGSSLLLPAASSTDAGSYHCRARDGHSASGPSSPAVLTVLYPPRQPTFTTRLDLDAAGAGAGRRGLLLCRVDSDPPARLQLLHKDRVVATSLPSGGGCSTCGGCSPRMKVTKAPNLLRVEIHNPLLEEEGLYLCEASNALGNASTSATFNGQATVLAIAPSHTLQEGTEANLTCNVSREAAGSPANFSWFRNGVLWAQGPLETVTLLPVARTDAALYACRILTEAGAQLSTPVLLSVLYPPDRPKLSALLDMGQGHMALFICTVDSRPLALLALFHGEHLLATSLGPQVPSHGRFQAKAEANSLKLEVRELGLGDSGSYRCEATNVLGSSNTSLFFQVRGAWVQVSPSPELQEGQAVVLSCQVHTGVPEGTSYRWYRDGQPLQESTSATLRFAAITLTQAGAYHCQAQAPGSATTSLAAPISLHVSYAPRHVTLTTLMDTGPGRLGLLLCRVDSDPPAQLRLLHGDRLVASTLQGVGGPEGSSPRLHVAVAPNTLRLEIHGAMLEDEGVYICEASNTLGQASASADFDAQAVNVQVWPGATVREGQLVNLTCLVWTTHPAQLTYTWYQDGQQRLDAHSIPLPNVTVRDATSYRCGVGPPGRAPRLSRPITLDVLYAPRNLRLTYLLESHGGQLALVLCTVDSRPPAQLALSHAGRLLASSTAASVPNTLRLELRGPQPRDEGFYSCSARSPLGQANTSLELRLEGVRVILAPEAAVPEGAPITVTCADPAAHAPTLYTWYHNGRWLQEGPAASLSFLVATRAHAGAYSCQAQDAQGTRSSRPAALQVLYAPQDAVLSSFRDSRARSMAVIQCTVDSEPPAELALSHDGKVLATSSGVHSLASGTGHVQVARNALRLQVQDVPAGDDTYVCTAQNLLGSISTIGRLQVEGARVVAEPGLDVPEGAALNLSCRLLGGPGPVGNSTFAWFWNDRRLHAEPVPTLAFTHVARAQAGMYHCLAELPTGAAASAPVMLRVLYPPKTPTMMVFVEPEGGLRGILDCRVDSEPLASLTLHLGSRLVASSQPQGAPAEPHIHVLASPNALRVDIEALRPSDQGEYICSASNVLGSASTSTYFGVRALHRLHQFQQ
notes: Construct not described; also called sialoadhesin; CD169
B2: D221N mutant of hexa-Fc (Fc fusion)
chain: NKTHTCPPCPAPELLGGPSVFLFPPKPKDTLMISRTPEVTCVVVDVSHEDPEVKFNWYVDGVEVHNAKTKPREEQYNSTYRVVSVLTVCLQDWLNGKEYKCKVSNKALPAPIEKTISKAKGQPREPQVYTLPPSREEMTKNQVSLTCLVKGFYPSDIAVEWESNGQPENNYKTTPPVLDSDGSFFLYSKLTVDKSRWQQGNVFSCSVMHEALHNHYTQKSLSLSPGKLVLGPPLYNVSLVMSDTAGTCY
modifications: N-linked glycans at Asn221 (N1), Asn297 (N77) and Asn563 (N236)
notes: Made on the hexa-Fc template in CHO-K1 cells; multimeric, hyper-sialylated
B3: D221N/N297A mutant of hexa-Fc (Fc fusion)
chain: B2 chain with N77A
modifications: N-linked glycans at Asn221 (N1) and Asn563 (N236)
notes: Made on the hexa-Fc template in CHO-K1 cells; multimeric
B4: D221N/N563A mutant of hexa-Fc (Fc fusion)
chain: B2 chain with N236A
modifications: N-linked glycans at Asn221 (N1) and Asn297 (N77)
notes: Made on the hexa-Fc template in CHO-K1 cells; runs as higher order multimers approximating dodecamers; also called D221/N563A; D221N/N563A dodecamer
B5: N297A mutant of hexa-Fc (Fc fusion)
chain: B2 chain with N1D, N77A
modifications: N-linked glycan at Asn563 (N236)
notes: Made on the hexa-Fc template in CHO-K1 cells; still multimeric (pentamers and hexamers)
B6: D221N/N297A/N563A mutant of hexa-Fc (Fc fusion)
chain: B2 chain with N77A, N236A
modifications: N-linked glycan at Asn221 (N1)
notes: Made on the hexa-Fc template in CHO-K1 cells; higher order multimers; also called D221/N297A/N563A
B7: N297A/N563A mutant of hexa-Fc (Fc fusion)
chain: B2 chain with N1D, N77A, N236A
modifications: no glycans attached
notes: Made on the hexa-Fc template in CHO-K1 cells; Results-1 says it cannot form oligomers, Results-2 says it forms higher order multimers; also called glycan deficient mutant; N297A/N563A double-knockout

Numbering of substitutions follows the chain as printed. Names may count otherwise.

Experiment [1] deals with T4, monomeric IgG1-Fc control (human, UniProt P01857-1 104-330 = IgG part, limits assumed, N-linked glycan at Asn297).
T4 construct: domain: Fc; also called wildtype IgG-Fc; wildtype IgG1-Fc
Nature of the experiment: ELISA (FIG. 12 B). (ELISA stands for enzyme-linked immunosorbent assay.)

The target of the next experiment is T5, human FcγRIIIB (human, UniProt O75015 17-200).
T5 construct: Bought protein, construct not described
T5 sequence (O75015 17-200 limits assumed): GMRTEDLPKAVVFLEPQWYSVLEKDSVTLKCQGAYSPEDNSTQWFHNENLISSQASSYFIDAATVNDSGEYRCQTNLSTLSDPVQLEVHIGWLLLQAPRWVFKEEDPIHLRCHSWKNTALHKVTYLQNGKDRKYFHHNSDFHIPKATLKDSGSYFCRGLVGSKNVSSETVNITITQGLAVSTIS
Nature of the experiment: ELISA, receptor coated on plate. The method, then: (§1) ELISAs were used to investigate the binding of oligomeric Fc mutants to FcγRI, FcγRIIA, FcγRIIB, FcγRIIIA and FcγRIIIB (all from R&D laboratories). Receptors were coated down to ELISA plates (Nunc) in carbonate buffer pH9 (Sigma-Aldrich) at 2 μg/ml overnight at 4° C. Plates were then blocked in PBS/0.1% Tween-20 (PBST) containing 4% skimmed milk (Tesco). Plates were then washed three times in PBS/0.1% Tween-20 (PBST) before adding Fc mutants at the indicated concentrations in PBST overnight at 4° C. Plates were washed as above and incubated for 2 h with 1:500 dilution of an alkaline phosphatase conjugated goat Fab′₂ anti-human IgG (Jackson Laboratories). Plates were washed as above and developed for 15 min with 100 μl of a Sigmafast p-nitrophenyl phosphate solution (Sigma-Aldrich). Plates were read at 405 nm and data plotted with Graphpad prism.

In a further experiment the target is T1, human FcγRIIB. Nature of the experiment: ELISA, receptor coated on plate. The protocol:
as §1

In experiment [2] the target is T6, human FcγRIIIA (human, UniProt P08637 17-208).
T6 construct: Bought protein, construct not described; also called FcgRIIIA
T6 sequence (P08637 17-208 limits assumed): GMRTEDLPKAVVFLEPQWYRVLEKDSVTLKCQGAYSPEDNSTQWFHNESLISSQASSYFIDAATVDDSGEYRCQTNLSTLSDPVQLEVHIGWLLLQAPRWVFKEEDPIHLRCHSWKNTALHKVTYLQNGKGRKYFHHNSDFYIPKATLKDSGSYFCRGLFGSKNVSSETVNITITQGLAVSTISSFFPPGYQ
Nature of the experiment: ELISA, receptor coated on plate. The method, then: as §1

The target of the next experiment is T7, human FcγRI (human, UniProt P12314 16-288).
T7 construct: Bought protein, construct not described
T7 sequence (P12314 16-288 limits assumed): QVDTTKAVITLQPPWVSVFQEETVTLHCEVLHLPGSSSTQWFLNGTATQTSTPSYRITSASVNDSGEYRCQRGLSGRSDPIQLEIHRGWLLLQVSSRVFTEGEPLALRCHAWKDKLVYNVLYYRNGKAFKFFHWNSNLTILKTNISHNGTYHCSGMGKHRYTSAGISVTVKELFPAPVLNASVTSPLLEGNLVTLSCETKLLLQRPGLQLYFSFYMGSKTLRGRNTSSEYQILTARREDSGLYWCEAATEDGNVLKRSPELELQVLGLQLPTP
In words: ELISA, receptor coated on plate. The protocol: as §1

In the next experiment the target is T2, human FcγRIIA. Nature of the experiment: ELISA, receptor coated on plate. The protocol:
as §1

Experiment [3] concerns the target T3, soluble recombinant tetrameric human …. In words: ELISA, soluble tetrameric human DC-SIGN (FIG. 12 A).
The target in experiment [4] is T6, human FcγRIIIA. In words: ELISA, receptor coated on plate (FIG. 4). The method, then:
as §1

The target in the experiment “human Siglec-1” is B1. Nature of the experiment: ELISA (FIG. 12 B).

From patent US20190151446A1 (LIVERPOOL SCHOOL OF TROPICAL MEDICINE, published 2019) come the findings set out here.

Consider B1, for which, in experiment [1], the binding result is listed as “no binding”.

Regarding B2, the binding result in the experiment with human FcγRIIIB, with human FcγRIIB, with human FcγRIIIA [2], with human FcγRI and in the experiment with human FcγRIIA was “no binding” each time.

For the molecule B3, the binding result (in the experiment with human FcγRIIIB; in the experiment with human FcγRIIB; with human FcγRIIIA [2]; with human FcγRI; with human FcγRIIA; in experiment [3]) was “no binding” each time.

As for B4, the binding result with human FcγRIIIB, with human FcγRIIB, with human FcγRI, with human FcγRIIA and with human FcγRIIIA [4] was “binds” throughout.

In the case of B5, the binding result in the experiment with human FcγRIIIB, with human FcγRIIB, with human FcγRIIIA [2], in the experiment with human FcγRI and with human FcγRIIA was “no binding” each time.

Turning to B6, the binding result in [3] is on record as “no binding”.

On to B7, for which, in the experiment with human Siglec-1, the binding result is “no binding”.
